Source: patent US20240336907A1, “NOVEL ENDO-ß-N-ACETYLGLUCOSAMINIDASE” (priority 2020, published 2024)

How the values were obtained:
(Fucα1,6)GlcNAc-mAb2 [1] = assay: One-pot method with various sugar chain donors, Endo-Rp N172H and Endo-Si D241M/Q311L; assay type: biochemical; conditions: donor 50 eq., Endo-Rp N172H 8 μg, Endo-Si D241M/Q311L 10 μg, 28° C., pH 7.5
Experimental: Transglycosylation activity was evaluated as follows. […] When SGP was used as a donor, the transglycosylation rate was calculated in accordance with the formula for computation described in Example 5.

(Fucα1,6)GlcNAc-mAb2 [2] = assay: One-pot method: Endo-Rp mutant enzymes (enzyme A) combined with Endo-Si D241Q, SGP donor; assay type: biochemical; conditions: Endo-Rp mutant enzyme 8 μg with Endo-Si D241Q 5 μg, SGP (50 eq.), 28° C., pH 7.5
Experimental: Using Endo-Rp, which is known to transfer a sugar chain from a sugar chain donor, SGP, to a GlcNAc derivative, as a representative of enzyme A, the property of enzyme A that can be used in combination with Endo-Si was investigated.
The transglycosylation activity on an antibody by the one-pot method was evaluated as follows. A 50 mM (sodium) phosphorate buffer (pH 7.5) solution (17 μL) containing (Fucα1,6)GlcNAc-mAb2 (0.5 mg), SGP (0.485 mg (50 eq.)), Endo-M N175Q (manufactured by Tokyo Kasei Kogyo Co., Ltd.) (2.5 mU) or each of various Endo-Rp mutant enzymes (8 μg) and Endo-Si D241Q (5 μg) was prepared and incubated at 28° C. A sample was taken from each of the reaction solutions at 2, 4, 6, 24, and 48 hours after initiation of the reaction and analyzed for protein by a fully automated electrophoresis system as mentioned above. In the chromatogram obtained, the transglycosylation rate was calculated in accordance with the formula for computation described in Example 5.

sialyl glycopeptide [SGP]
Transglycosylation rate (%) ((Fucα1,6)GlcNAc-mAb2 [1]; 2 h): 3.8%
Transglycosylation rate (%) ((Fucα1,6)GlcNAc-mAb2 [1]; 4 h): 5.0%
Transglycosylation rate (%) ((Fucα1,6)GlcNAc-mAb2 [1]; 6 h): 11.2%
Transglycosylation rate (%) ((Fucα1,6)GlcNAc-mAb2 [1]; 24 h): 53.5%
Transglycosylation rate (%) ((Fucα1,6)GlcNAc-mAb2 [1]; 48 h): 89.7%

B1: Endo-Rp W278F/N172D/A310D (protein)
chain: MPSLQLQPDDKLAPVSFALKSMNELRDWTPDEKIKFNVSSVALQPRVKNALKPQLLLTHDMAGGYKEDKNIQGNNYKDIYNIQYWHLADTFVYFSHERVSIPPVNWTNACHRNGVKCLGTFLVEGNNQMHEMEALLHGPPLLNNTDDPMRLWSPYYADQLVAIAKHYGFDGWLFDIECEFFPFPTNPKFKAEELAKFLHYFKEKLHNEIPGSQLIWYDSMTNEGEIHWQNQLTWKNELFFKNTDGIFLNYWWKKEYPEMARRVAEGIGRSGLEVYFGTDVFGRHTYGGGGFKSYKGVKTAYSAMTSSALFGMDWTYEHFEKSEFEKMDRLFWCGGKYSDYPPPPPKNPDDEKEVESDDSEDELMYGHKKGIADTVESIPVPGTDWFVTNFDRGFGNRFYYRGKRLLSQPWSHLSHQAILPNKSYRNPEIYPTDQNIKITSSLDCDHGAFLGGTSLIIKGQRFNHRESHDVETEISIPLYKLSLDASKGCSLRYIYRTLLMKDVKLTVACHFSLKTNDSVNFFKVWQPDENFSFEYDDGMRATVTTENSTESRCFLLRTTEEDTGENDWITKTINVPAVPEGSQLYITRLEVSVVLDTAGLVGLVNQVIACLGYISIIPTINSGIKTDSSRIIQDLFWKDQKYTKIGKESLDDIAQEEVHRYYGTLNWENTANVVNAWEEIDYYNVFYKESDDSATRIFLGTAFCNQFRVSGLDIILSKLPKIVIEAVNKEGYISSSGSIDLSLN
Change in transglycosylation rate (%) with time ((Fucα1,6)GlcNAc-mAb2 [2]; 2 h): 0.0%
Change in transglycosylation rate (%) with time ((Fucα1,6)GlcNAc-mAb2 [2]; 4 h): 0.0%
Change in transglycosylation rate (%) with time ((Fucα1,6)GlcNAc-mAb2 [2]; 6 h): 0.0%
Change in transglycosylation rate (%) with time ((Fucα1,6)GlcNAc-mAb2 [2]; 24 h): 8.5%
Change in transglycosylation rate (%) with time ((Fucα1,6)GlcNAc-mAb2 [2]; 48 h): 17.0%

B2: Endo-Rp Y214F/F307Y/L306I (protein)
chain: MPSLQLQPDDKLAPVSFALKSMNELRDWTPDEKIKFNVSSVALQPRVKNALKPQLLLTHDMAGGYKEDKNIQGNNYKDIYNIQYWHLADTFVYFSHERVSIPPVNWTNACHRNGVKCLGTFLVEGNNQMHEMEALLHGPPLLNNTDDPMRLWSPYYADQLVAIAKHYGFDGWLFNIECEFFPFPTNPKFKAEELAKFLHYFKEKLHNEIPGSQLIWFDSMTNEGEIHWQNQLTWKNELFFKNTDGIFLNYWWKKEYPEMARRVAEGIGRSGLEVYFGTDVWGRHTYGGGGFKSYKGVKTAYSAMTSSAIYGMAWTYEHFEKSEFEKMDRLFWCGGKYSDYPPPPPKNPDDEKEVESDDSEDELMYGHKKGIADTVESIPVPGTDWFVTNFDRGFGNRFYYRGKRLLSQPWSHLSHQAILPNKSYRNPEIYPTDQNIKITSSLDCDHGAFLGGTSLIIKGQRFNHRESHDVETEISIPLYKLSLDASKGCSLRYIYRTLLMKDVKLTVACHFSLKTNDSVNFFKVWQPDENFSFEYDDGMRATVTTENSTESRCFLLRTTEEDTGENDWITKTINVPAVPEGSQLYITRLEVSVVLDTAGLVGLVNQVIACLGYISIIPTINSGIKTDSSRIIQDLFWKDQKYTKIGKESLDDIAQEEVHRYYGTLNWENTANVVNAWEEIDYYNVFYKESDDSATRIFLGTAFCNQFRVSGLDIILSKLPKIVIEAVNKEGYISSSGSIDLSLN
Change in transglycosylation rate (%) with time ((Fucα1,6)GlcNAc-mAb2 [2]; 2 h): 34.5%
Change in transglycosylation rate (%) with time ((Fucα1,6)GlcNAc-mAb2 [2]; 4 h): 53.0%
Change in transglycosylation rate (%) with time ((Fucα1,6)GlcNAc-mAb2 [2]; 6 h): 63.4%
Change in transglycosylation rate (%) with time ((Fucα1,6)GlcNAc-mAb2 [2]; 24 h): 87.4%
Change in transglycosylation rate (%) with time ((Fucα1,6)GlcNAc-mAb2 [2]; 48 h): 88.8%
